Key:
Assay in all cases: cell-based or functional assay
[1] = biological target: HIV-1 Env of isolate MG RM-D-011 (HIV-1)
[2] = biological target: HIV-1 Env of isolate MG RM-D-012 (HIV-1)
[3] = biological target: HIV-1 Env of isolate MG RM-D-013 (HIV-1)
[4] = biological target: HIV-1 Env of isolate MG RM-D-014 (HIV-1)
[5] = biological target: HIV-1 Env of isolate MG RM-D-016 (HIV-1)
[6] = biological target: HIV-1 Env of isolate MG RM-D-018 (HIV-1)
[7] = biological target: HIV-1 Env of isolate MG RM-D-019 (HIV-1)
[8] = biological target: HIV-1 Env of isolate MG RM-D-020 (HIV-1)
[9] = biological target: HIV-1 Env of isolate MG RM-D-021 (HIV-1)
[10] = biological target: HIV-1 Env of isolate MG RM-D-022 (HIV-1)
[11] = biological target: HIV-1 Env of isolate MG RM-D-024 (HIV-1)
[12] = biological target: HIV-1 Env of isolate MG RM-D-026 (HIV-1)
[13] = biological target: HIV-1 Env of isolate MG RM-D-028 (HIV-1)
[14] = biological target: HIV-1 Env of isolate MG RM-D-029 (HIV-1)
[15] = biological target: HIV-1 Env of isolate MGRM-C-005 (HIV-1)
[16] = biological target: HIV-1 Env of isolate MGRM-F1-004 (HIV-1)
[17] = biological target: HIV-1 Env of isolate MGRM-F1-006 (HIV-1)
[18] = biological target: HIV-1 Env of isolate MGRM-F1-008 (HIV-1)
[19] = biological target: HIV-1 Env of isolate MGRM-F1-010 (HIV-1)
[20] = biological target: HIV-1 Env of isolate MGRM-F1-012 (HIV-1)
[21] = biological target: HIV-1 Env of isolate MGRM-F1-013 (HIV-1)
[22] = biological target: HIV-1 Env of isolate MGRM-F1-014 (HIV-1)
[23] = biological target: HIV-1 Env of isolate MGRM-F1-015 (HIV-1)
[24] = biological target: HIV-1 Env of isolate MGRM-F1-016 (HIV-1)
[25] = biological target: HIV-1 Env of isolate MGRM-F1-017 (HIV-1)
[26] = biological target: HIV-1 Env of isolate MGRM-F1-018 (HIV-1)
[27] = biological target: HIV-1 Env of isolate MGRM-F1-020 (HIV-1)
[28] = biological target: HIV-1 Env of isolate MGRM-F1-021 (HIV-1)
[29] = biological target: HIV-1 Env of isolate MGRM-F1-022 (HIV-1)
[30] = biological target: HIV-1 Env of isolate MGRM-F1-023 (HIV-1)
[31] = biological target: HIV-1 Env of pseudovirus MGRM-AE-007 (subtype AE) (HIV-1)
[32] = biological target: HIV-1 Env of pseudovirus MGRM-AE-008 (subtype AE) (HIV-1)
[33] = biological target: HIV-1 Env of pseudovirus MGRM-AG-001 (subtype AG) (HIV-1)
[34] = biological target: HIV-1 Env of pseudovirus MGRM-AG-002 (subtype AG) (HIV-1)
[35] = biological target: HIV-1 Env of pseudovirus MGRM-AG-003 (subtype AG) (HIV-1)
[36] = biological target: HIV-1 Env of pseudovirus MGRM-AG-005 (subtype AG) (HIV-1)
[37] = biological target: HIV-1 Env of pseudovirus MGRM-AG-006 (subtype AG) (HIV-1)
[38] = biological target: HIV-1 Env of pseudovirus MGRM-AG-008 (subtype AG) (HIV-1)
[39] = biological target: HIV-1 Env of pseudovirus MGRM-AG-009 (subtype AG) (HIV-1)
[40] = biological target: HIV-1 Env of pseudovirus MGRM-AG-011 (subtype AG) (HIV-1)
[41] = biological target: HIV-1 Env of pseudovirus MGRM-AG-012 (subtype AG) (HIV-1)
[42] = biological target: HIV-1 Env of pseudovirus MGRM-AG-013 (subtype AG) (HIV-1)

PGT-142 (4995_E20) (antibody), sequence (VH): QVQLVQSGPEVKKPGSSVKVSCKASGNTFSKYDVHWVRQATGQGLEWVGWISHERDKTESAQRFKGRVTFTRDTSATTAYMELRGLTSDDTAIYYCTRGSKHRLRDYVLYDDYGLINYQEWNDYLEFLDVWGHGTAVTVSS
PGT-142 (4995_E20) (antibody), sequence (VL): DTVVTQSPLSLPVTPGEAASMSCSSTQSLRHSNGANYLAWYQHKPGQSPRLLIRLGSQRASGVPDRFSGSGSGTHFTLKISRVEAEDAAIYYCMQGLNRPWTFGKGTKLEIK
PGT-141 (4964_G22; 4993_K13) (antibody), sequence (VH): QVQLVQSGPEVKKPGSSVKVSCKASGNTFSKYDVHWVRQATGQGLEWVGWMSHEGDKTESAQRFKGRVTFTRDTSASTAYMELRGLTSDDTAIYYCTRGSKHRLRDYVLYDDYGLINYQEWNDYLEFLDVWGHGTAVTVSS
PGT-141 (4964_G22; 4993_K13) (antibody), sequence (VL): as the sequence (VL) above

PGT-141 (4964_G22; 4993_K13) (antibody)
IC50 [1]: > 50 µg/mL | IC50 [2]: > 50 µg/mL | IC50 [3]: 0.179 µg/mL | IC50 [4]: 0.01 µg/mL | IC50 [5]: > 50 µg/mL | IC50 [6]: > 50 µg/mL | IC50 [7]: 1.66 µg/mL | IC50 [8]: > 50 µg/mL | IC50 [9]: > 50 µg/mL | IC50 [10]: > 50 µg/mL | IC50 [11]: > 50 µg/mL | IC50 [12]: 32.5 µg/mL | IC50 [13]: < 50 µg/mL | IC50 [14]: 0.057 µg/mL | IC50, pseudovirus neutralization [15]: 8.83 µg/mL | IC50 [16]: 0.021 µg/mL | IC50 [17]: 8.99 µg/mL | IC50 [18]: 0.193 µg/mL | IC50 [19]: > 50 µg/mL | IC50 [20]: > 50 µg/mL | IC50 [21]: 0.043 µg/mL | IC50 [22]: 0.001 µg/mL | IC50 [23]: > 50 µg/mL | IC50 [24]: > 50 µg/mL | IC50 [25]: 30.8 µg/mL | IC50 [26]: 0.785 µg/mL | IC50 [27]: 1.15 µg/mL | IC50 [28]: > 50 µg/mL | IC50 [29]: 0.114 µg/mL | IC50 [30]: 0.307 µg/mL | IC50, pseudovirus neutralization [31]: 33.1 µg/mL | IC50, pseudovirus neutralization [32]: 0.101 µg/mL | IC50, pseudovirus neutralization [33]: 18 µg/mL | IC50, pseudovirus neutralization [34]: 0.049 µg/mL | IC50, pseudovirus neutralization [35]: > 50 µg/mL | IC50, pseudovirus neutralization [36]: 0.497 µg/mL | IC50, pseudovirus neutralization [37]: > 50 µg/mL | IC50, pseudovirus neutralization [38]: 19.2 µg/mL | IC50, pseudovirus neutralization [39]: > 50 µg/mL | IC50, pseudovirus neutralization [40]: 0.118 µg/mL | IC50, pseudovirus neutralization [41]: > 50 µg/mL | IC50, pseudovirus neutralization [42]: > 50 µg/mL

PGT-142 (4995_E20) (antibody)
IC50 [1]: > 50 µg/mL | IC50 [2]: > 50 µg/mL | IC50 [3]: 0.221 µg/mL | IC50 [4]: 0.005 µg/mL | IC50 [5]: > 50 µg/mL | IC50 [6]: > 50 µg/mL | IC50 [7]: 0.155 µg/mL | IC50 [8]: > 50 µg/mL | IC50 [9]: > 50 µg/mL | IC50 [10]: > 50 µg/mL | IC50 [11]: > 50 µg/mL | IC50 [12]: 12.5 µg/mL | IC50 [13]: > 50 µg/mL | IC50 [14]: 0.192 µg/mL | IC50 [16]: 0.013 µg/mL | IC50 [17]: 12.9 µg/mL | IC50 [18]: 0.124 µg/mL | IC50 [19]: > 50 µg/mL | IC50 [20]: > 50 µg/mL | IC50 [21]: 0.023 µg/mL | IC50 [22]: 0.001 µg/mL | IC50 [23]: > 50 µg/mL | IC50 [24]: > 50 µg/mL | IC50 [25]: 23.5 µg/mL | IC50 [26]: 0.404 µg/mL | IC50 [27]: 0.824 µg/mL | IC50 [28]: > 50 µg/mL | IC50 [29]: 0.04 µg/mL | IC50 [30]: 0.602 µg/mL | IC50, pseudovirus neutralization [31]: 6.7 µg/mL | IC50, pseudovirus neutralization [32]: 0.08 µg/mL | IC50, pseudovirus neutralization [33]: 12.4 µg/mL | IC50, pseudovirus neutralization [34]: 0.044 µg/mL | IC50, pseudovirus neutralization [35]: > 50 µg/mL | IC50, pseudovirus neutralization [36]: 0.383 µg/mL | IC50, pseudovirus neutralization [37]: > 50 µg/mL | IC50, pseudovirus neutralization [38]: 12.1 µg/mL | IC50, pseudovirus neutralization [39]: > 50 µg/mL | IC50, pseudovirus neutralization [40]: 0.081 µg/mL | IC50, pseudovirus neutralization [41]: > 50 µg/mL | IC50, pseudovirus neutralization [42]: 21.7 µg/mL

From patent US20250320281A1
